In patent publication US20210015937A1 (CRESCENDO BIOLOGICS, published 2021):

How the values were obtained:
[1] = molecular target: T1, recombinant human LAG-3-Fc (human, UniProt P18627 23-450); test: competition ELISA; LAG-3-Fc pre-incubated with VH, binding to coated Galectin-3
T1 construct: also called human LAG-3 (R&D Systems cat no. 2319-L3); LAG3 antigen
T1 sequence: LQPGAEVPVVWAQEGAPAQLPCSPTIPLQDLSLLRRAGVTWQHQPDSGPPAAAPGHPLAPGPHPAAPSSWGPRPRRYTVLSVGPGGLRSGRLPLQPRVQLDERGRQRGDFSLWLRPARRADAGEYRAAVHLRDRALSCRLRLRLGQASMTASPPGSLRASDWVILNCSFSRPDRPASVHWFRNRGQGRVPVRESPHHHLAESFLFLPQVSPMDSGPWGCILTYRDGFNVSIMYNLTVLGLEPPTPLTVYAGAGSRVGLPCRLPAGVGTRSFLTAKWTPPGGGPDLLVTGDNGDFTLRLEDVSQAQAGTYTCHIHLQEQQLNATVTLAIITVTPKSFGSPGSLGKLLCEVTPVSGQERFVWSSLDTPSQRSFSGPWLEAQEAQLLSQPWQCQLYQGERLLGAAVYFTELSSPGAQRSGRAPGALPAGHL
Description: (§1) The plate was blocked with 3% Marvel skimmed milk powder in PBS. […] Wash steps were done 3 times with PBS 0.05% Tween. Colour was developed using TMB and 0.5M sulphuric acid solution.

[2] = molecular target: T2, human LAG-3 expressed on cells (human, UniProt P18627 23-525); test: cell-based or functional assay
T2 sequence: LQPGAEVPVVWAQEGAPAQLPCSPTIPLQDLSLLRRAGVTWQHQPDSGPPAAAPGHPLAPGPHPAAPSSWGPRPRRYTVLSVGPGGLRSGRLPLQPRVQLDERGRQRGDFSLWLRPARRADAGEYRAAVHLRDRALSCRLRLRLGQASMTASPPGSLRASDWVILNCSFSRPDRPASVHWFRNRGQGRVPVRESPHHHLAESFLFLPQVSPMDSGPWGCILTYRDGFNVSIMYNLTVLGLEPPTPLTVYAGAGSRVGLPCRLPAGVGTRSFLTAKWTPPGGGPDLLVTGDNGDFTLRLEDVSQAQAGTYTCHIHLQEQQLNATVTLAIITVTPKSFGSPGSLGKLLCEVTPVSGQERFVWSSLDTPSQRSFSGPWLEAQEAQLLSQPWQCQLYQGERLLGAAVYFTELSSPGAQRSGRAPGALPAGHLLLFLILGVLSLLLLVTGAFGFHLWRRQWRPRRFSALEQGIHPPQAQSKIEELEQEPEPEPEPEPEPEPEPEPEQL

[3] = molecular target: T3, recombinant human PD-1 Fc chimera (human, UniProt Q15116 25-167); test: Octet bio-layer interferometry; VH (100 nM) first bound to immobilised LAG3-Fc, then PD-1-Fc added
T3 construct: Bought Fc chimera; also called human PD-1 (R&D systems cat no. 1086-PD); PD1 antigen
Method: Recombinant LAGS-Fc (10 μg/ml) was immobilised by standard amine coupling to amine reactive biosensors in 10 mM sodium acetate at pH6. The binding steps were performed in 0.1% BSA 0.02% Tween20 in PBS. 100 nM of Humabody® were used in the first binding step, followed by binding of human PD1-Fc at 5 μg/ml. The contact time for association and dissociation was 200 seconds.

[4] = molecular target: T1, recombinant human LAG-3-Fc; test: competition ELISA; LAG-3-Fc pre-incubated with VH, binding to coated LSECtin
Description: as §1

[5] = molecular target: T4, human LAG-3 domains 1-2-Fc (human, UniProt P18627 23-261, limits assumed); test: BLI (Octet); human LAG-3 domains 1-2-Fc captured on protein G biosensors, 1:1 fit
T4 construct: Domains were identified as per Huard et al 1997 PNAS 94:5744-9; also called truncated LAG-3
T4 sequence: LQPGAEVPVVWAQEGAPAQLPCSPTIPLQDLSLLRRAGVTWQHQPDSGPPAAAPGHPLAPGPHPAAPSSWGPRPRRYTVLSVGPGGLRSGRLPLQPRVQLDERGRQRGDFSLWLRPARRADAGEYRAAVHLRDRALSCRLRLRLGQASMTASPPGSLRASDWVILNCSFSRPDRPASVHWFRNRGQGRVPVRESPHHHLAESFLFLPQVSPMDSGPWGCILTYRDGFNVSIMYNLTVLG
Method: Binding kinetics for multi-valent and bispecific VH were also measured in real-time bio-layer interferometer based biosensor Octet (ForteBio). […] All the binding studies were performed in HBS-ET Octet kinetics buffer. Biosensors were washed in Octet kinetics buffer in between different steps. […] The contact time for each of the association steps was 150 seconds and the dissociation step was 400 seconds. […] To compare the constructs, kinetic association (kₐ) and dissociation (kd) rate constants were determined by processing and fitting the data to a 1:1 binding model using ForteBio Analysis software.

[6] = molecular target: T1, recombinant human LAG-3-Fc; test: BLI (Octet); human LAG-3-Fc captured on protein G biosensors, 1:1 fit
[7] = molecular target: T5, mouse LAG-3 (mouse, UniProt Q61790 24-442); test: ELISA, coated antigen, anti-HIS HRP detection
T5 construct: The construct is not described; also called mouse LAG-3 (Sino Biological cat no 53069-M02H); Mouse LAG3 (R&D Biotechne cat 3328-L3)
T5 sequence (looked up): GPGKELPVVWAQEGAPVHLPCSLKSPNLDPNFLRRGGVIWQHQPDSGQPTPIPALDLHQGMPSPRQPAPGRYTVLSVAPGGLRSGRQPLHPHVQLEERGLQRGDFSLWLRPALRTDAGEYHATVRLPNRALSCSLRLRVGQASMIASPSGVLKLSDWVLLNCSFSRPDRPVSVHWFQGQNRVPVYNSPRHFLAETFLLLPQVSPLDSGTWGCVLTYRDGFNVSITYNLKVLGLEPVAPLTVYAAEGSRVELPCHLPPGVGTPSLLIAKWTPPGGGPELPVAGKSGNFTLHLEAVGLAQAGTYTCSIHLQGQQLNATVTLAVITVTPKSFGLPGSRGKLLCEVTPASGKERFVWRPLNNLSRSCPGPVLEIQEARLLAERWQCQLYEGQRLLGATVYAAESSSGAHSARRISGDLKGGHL
Method: (§2) To screen specificity by ELISA, antigens were coated at 1-5 ug/ml and blocked with Marvel milk powder. VH were added at 10 μg/ml and incubated for 1 hour. After washing, HRP-conjugated anti-HIS antibody (Miltenyi cat no. 130-092-785) was added. TMB substrate and acidic solution were used to develop colorimetric signal.

[8] = molecular target: T6, CD4 (UniProt P01730 26-390); test: ELISA, coated antigen, anti-HIS HRP detection
T6 construct: also called CD4 (R&D Biotechne 514-CD)
Method: as §2

T3 sequence (Q15116 25-167 limits assumed, change not shown): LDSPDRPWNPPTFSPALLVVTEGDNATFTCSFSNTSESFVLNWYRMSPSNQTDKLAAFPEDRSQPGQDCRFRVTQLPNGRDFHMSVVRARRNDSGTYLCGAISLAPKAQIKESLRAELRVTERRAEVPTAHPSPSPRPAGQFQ

- IC50 [1]: 34 nM
- EC50 (M), NFAT-Luciferase Reporter Gene assay (LAG-3:MHCII) [2]: 4.1e-09 M
- binding result [3]: no binding
- IC50 [4]: 55 nM
- Kd [5]: 0.811 nM
- koff [5]: 0.000522 s⁻¹
- kon [5]: 644000 M⁻¹ s⁻¹
- Kd [6]: 0.417 nM
- koff [6]: 0.00047 s⁻¹
- kon [6]: 1.13e+06 M⁻¹ s⁻¹
- binding result [7]: no binding (tested: 10 µg/ml VH)
- binding result [8]: no binding (tested: 10 µg/ml VH)
B1: VH1.1-6GS-VH1.1-His6 (VHH)
chain: EVQLVESGGGVVRPGGSLRLSCSASGFTFDDYGMSWVRQAPGKGLEWVSGIHWNGGNSGYADSVKGRFTISRDNAKNSLYLQMNSLRAEDTALYYCARIPREDCSSASCYTDAIDFWGPGTMVTVSSGGGGSGGGGSGGGGSGGGGSGGGGSGGGGSEVQLVESGGGVVRPGGSLRLSCSASGFTFDDYGMSWVRQAPGKGLEWVSGIHWNGGNSGYADSVKGRFTISRDNAKNSLYLQMNSLRAEDTALYYCARIPREDCSSASCYTDAIDFWGPGTMVTVSSAAAHHHHHH
notes: Tandem fusion of two VH 1.1, bivalent for LAG-3; The entry includes the C-terminal AAA-His6; also called 1.1-6GS-1.1; bivalent 1.1-6GS-1.1
